Reference: doi:10.1101/694653 (bioRxiv, 2019)
Where two headings read alike, the source gives them in different places. Blank lines part the entries; values can stand above or below the molecule they belong to.

Legend:
Experiment in all cases: cross-linking
[1] = biological target: A. aegypti GPA2-FLAG (Aedes aegypti) (UniProt C6SUP2)
[2] = biological target: A. aegypti GPA2-FLAG (Aedes aegypti) (UniProt C6SUP2); remark: listed apart in the source
[3] = biological target: A. aegypti GPA2-His (Aedes aegypti) (UniProt C6SUP2)
cross-linking [4] = biological target: the molecule itself
cross-linking [5] = biological target: the molecule itself; remark: listed apart in the source

- stoichiometry N [1]: 2
- stoichiometry N [2]: 2
Molecule: A. aegypti GPA2-FLAG (from UniProt C6SUP2 1-120) (natural protein)

- stoichiometry N [3]: 2
Molecule: A. aegypti GPA2-His (from UniProt C6SUP2 1-120) (natural protein)

B1: A. aegypti GPB5-His (natural protein, Aedes aegypti, UniProt C6SUR0 1-162, looked up)
chain: VEDSLFISGFEKKAPMLGCHKRVFTYRISQADSKGRECWDHVSVWSCHGRCDSNEISDWRFPYKRSHHPVCMHAGRTRSVATLRHCHPEADAEAKLYEYMEPKSCSCQTCTSMDTSCEGPKQLSTDAATKIFQIDDEEIESEYA
- stoichiometry N (cross-linking [4]): 2

B2: H. sapiens GPB5-His (natural protein, UniProt Q86YW7 25-130, looked up)
chain: ASSGNLRTFVGCAVREFTFLAKKPGCRGLRITTDACWGRCETWEKPILEPPYIEAHHRVCTYNETKQVTVKLPNCAPGVDPFYTYPVAIRCDCGACSTATTECETI
- stoichiometry N (cross-linking [5]): 2

B3: H. sapiens GPA2-FLAG (natural protein, UniProt Q96T91 24-129, looked up)
chain: QEAVIPGCHLHPFNVTVRSDRQGTCQGSHVAQACVGHCESSAFPSRYSVLVASGYRHNITSVSQCCTISGLKKVKVQLQCVGSRREELEIFTARACQCDMCRLSRY
- stoichiometry N (cross-linking [5]): 2
